# Measurements from PMC11142733, “IgG hexamers initiate complement-dependent acute lung injury” (The Journal of Clinical Investigation, 2024).
# Read-outs that look alike come from different tables or passages of the source.
# T1: D^d MHC class I monomer presenting IGPGRAFYA (mouse | )
# T1 chain 1: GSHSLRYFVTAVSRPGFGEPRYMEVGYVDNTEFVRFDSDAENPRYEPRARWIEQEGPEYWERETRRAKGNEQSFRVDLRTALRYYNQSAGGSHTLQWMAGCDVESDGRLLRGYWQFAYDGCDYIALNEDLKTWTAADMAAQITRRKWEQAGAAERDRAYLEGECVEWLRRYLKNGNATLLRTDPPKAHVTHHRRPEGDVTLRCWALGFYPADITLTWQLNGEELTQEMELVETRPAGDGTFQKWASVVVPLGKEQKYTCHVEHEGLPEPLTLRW
# T1 chain 2: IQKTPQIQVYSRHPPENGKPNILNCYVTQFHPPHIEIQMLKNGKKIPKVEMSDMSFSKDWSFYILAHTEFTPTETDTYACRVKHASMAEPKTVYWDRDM
# T1 chain 3: IGPGRAFYA
# T2: K^b MHC class I monomer presenting SIINFEKL (mouse | )
# T2 chain 1: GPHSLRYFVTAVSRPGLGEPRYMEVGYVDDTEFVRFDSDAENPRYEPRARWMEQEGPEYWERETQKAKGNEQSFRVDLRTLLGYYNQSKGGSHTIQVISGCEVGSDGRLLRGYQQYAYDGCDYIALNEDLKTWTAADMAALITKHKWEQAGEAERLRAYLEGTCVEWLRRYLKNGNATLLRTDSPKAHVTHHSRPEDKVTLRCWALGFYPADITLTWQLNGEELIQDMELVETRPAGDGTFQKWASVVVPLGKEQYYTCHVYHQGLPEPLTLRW
# T2 chain 2: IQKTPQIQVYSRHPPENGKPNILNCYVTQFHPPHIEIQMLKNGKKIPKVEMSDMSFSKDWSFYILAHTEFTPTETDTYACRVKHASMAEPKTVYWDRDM
# T2 chain 3: SIINFEKL
# T3: K^d MHC class I monomer presenting VYLKTNVFL (mouse | )
# T3 chain 1: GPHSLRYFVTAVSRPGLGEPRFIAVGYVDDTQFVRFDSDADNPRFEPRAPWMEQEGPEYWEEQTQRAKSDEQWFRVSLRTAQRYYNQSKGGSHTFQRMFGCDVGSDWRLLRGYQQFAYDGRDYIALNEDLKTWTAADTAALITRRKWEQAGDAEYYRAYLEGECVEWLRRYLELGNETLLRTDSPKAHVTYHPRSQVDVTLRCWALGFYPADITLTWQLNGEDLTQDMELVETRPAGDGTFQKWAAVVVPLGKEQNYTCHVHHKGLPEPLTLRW
# T3 chain 2: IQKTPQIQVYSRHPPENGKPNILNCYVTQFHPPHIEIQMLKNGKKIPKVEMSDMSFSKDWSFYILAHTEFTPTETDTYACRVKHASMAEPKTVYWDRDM
# T3 chain 3: VYLKTNVFL
# Columns and labels:
# [1] = biological target: T4, K^d MHC class I monomer presenting … (Mus musculus, H-2d haplotype (H-2Kd), UniProt P01902;P01887)
# [2] = biological target: RGY-mutated 34-1-2S (RGY-hIgG1-34-1-2S) (mouse | human); assay: negative stain electron microscopy; antibody samples diluted to 0.01 mg/mL in 25 mM HEPES and 100 mM NaCl, on carbon-coated grids, stained with 0.75% uranyl formate; monomer to hexamer in solution
# [3] = biological target: T4, K^d MHC class I monomer presenting …; assay: SPR; mAbs bound via amine coupling to SensEye G Easy2Spot sensors; serial dilutions (0.5–200 nM) of MHC class I monomers injected; in triplicate; IBIS MX96 SPR imager; details: both partners purified
# [4] = biological target: T5, K^b MHC class I monomer presenting SIINFEKL (Mus musculus, H-2b haplotype (H-2Kb), UniProt P01901;P01887); assay: as above; details: both partners purified
# T5 construct: mouse MHC class I heavy chain H-2K^b of the bought monomer; beta-2-microglobulin of the bought monomer; presented peptide; Soluble monomer from a supplier; also called K^b MHC class I antigen from H2^b mice; copies: + +
# [5] = biological target: T6, D^b MHC class I monomer presenting … (Mus musculus, H-2b haplotype (H-2Db), UniProt P01899;P01887); assay: as above; details: both partners purified
# T6 construct: mouse MHC class I heavy chain H-2D^b of the bought monomer; beta-2-microglobulin of the bought monomer; presented peptide; Soluble monomer from a supplier; copies: + +
# [6] = biological target: T1, D^d MHC class I monomer presenting …; assay: SPR
# [7] = biological target: T2, K^b MHC class I monomer presenting …; assay: SPR
# [8] = biological target: T3, K^d MHC class I monomer presenting …; assay: SPR
binder,measurement,setting,value
"Kd1 (antibody, V domains shown) VH: EVLLVESGGDLVKPGGSLKLSCAASGFTFRTYAMSWVRQTPEKRLEWVATIGDDGSYTFYPDNVKGRFTISRDNAKNNLYLQMRHLKSEDTAIYFCARDGLFAYWGQGTLVTVSA VL: DIQMTQSPSSLSASLGGKVTITCKASQDIKKNIAWYQYKPGKGPRLLIHYTSTLQPGISSRFSGSGSGRDYSFSISNLEPEDIATYYCLQYDSLLYTFGGGTKLEIK",binding result,[1],binds
"RGY-mutated 34-1-2S (RGY-hIgG1-34-1-2S) (antibody, V domains shown) VH: EVQLQQSGAEFVRPGASVKLSCTASGFNLKDDYMFWVKQRPEQGLEWIGWIAPDNGDTEYASKFQGKATITADTSSNTAYVQLSSLTSEDTAVYYCTTWGYYSYVNYWGQGTTLTVSS VL: DIQMTQSPSSLSASLGERVSLTCRASQDIGSNLNWLQQEPDGTIKRLIYATYSLDSGVPKRFSGSRSGSDYSLTISSLESEDFVDYYCLQYASSPYTFGGGTKLEIK",stoichiometry N,[2],6
"MHC class I alloantibody 34-1-2S (mouse IgG2a) (antibody, V domains shown, heavy-chain variable region of 34-1-2S; mouse IgG2a heavy-chain constant region; light chain variable region of 34-1-2S; light-chain constant region of the mouse antibody; Mouse IgG2a; also called anti-MHC class I clone 34-1-2S; control 34-1-2S; source: bought: Bio X Cell, catalog no; BE0180) VH: EVQLQQSGAEFVRPGASVKLSCTASGFNLKDDYMFWVKQRPEQGLEWIGWIAPDNGDTEYASKFQGKATITADTSSNTAYVQLSSLTSEDTAVYYCTTWGYYSYVNYWGQGTTLTVSS VL: DIQMTQSPSSLSASLGERVSLTCRASQDIGSNLNWLQQEPDGTIKRLIYATYSLDSGVPKRFSGSRSGSDYSLTISSLESEDFVDYYCLQYASSPYTFGGGTKLEIK",binding result,[3],binds
same,binding result,[4],binds
same,binding result,[5],no binding (tested: 0.5–200 nM)
same,Kd,[6],30 nM
same,Kd,[7],2490 nM
same,Kd,[8],9.1 nM
